Test results taken from patent publication US20220386594A1 (IBI AG INNOVATIVE BIO INSECTICIDES, published 2022).

B1: TRH13 (VHH)
VHH: QVQLQESGGGLVQAGGSLRLTCAATVRIFSSYTMGWFRQSPGKEREFVGAITWSGGNTYYADSVKGRFTISRDNAKNTVYLQMNSLKSEDTAVYYCAADPGRSYVLSRYYDQASYDYWGQGTQVTVSS
notes: Llama nanobody, His-tagged, expressed in E. coli SHuffle T7; also called anti-TRH nanobody TRH13
B2: TRH1A (VHH)
VHH: QVQLQESGGGLVQAGGSLRLSCATSGRAFTNYHMGWFRQTPGKEREFVALISWSGDSTRYADSVKGRFTISRDNAKRTVALQMDSLKPEDSAVYYCASRLVGQSQYEVWGQGTQVTVSS
notes: Llama nanobody, His-tagged, expressed in E. coli SHuffle T7; also called anti-TRH nanobody TRH1A
B3: TRH12 (VHH)
VHH: QVQLQESGGGLVQAGGSLRLSCAASTSTVSDYHMGWFRQGPGKEREFVAAISWSGDSTDYADSVKARFTISRDNAKKTMSLQMNSLKPEDTAAYYCAARRVFKATWDYWGQGTQVTVSS
notes: Llama nanobody, His-tagged, expressed in E. coli SHuffle T7; also called anti-TRH nanobody TRH12
B4: TRH14 (VHH)
VHH: QVQLQESGGGLVQAGDSLRLSCAASGRPFSSYTMGWFRQAPGKEREFVAAISWSGGTTYYTDSVQGRFTISRDNAKNTVYLQMNRLKPEDTAVYYCATDVGRIYGGGSLYSSAFSYDYWGQGTQVTVSS
notes: Llama nanobody, His-tagged, expressed in E. coli SHuffle T7; also called anti-TRH nanobody TRH14
B5: CHS13 (VHH)
VHH: QVQLQESGGGLVQAGGSLRLSCTVSGGTFTTYTMAWFRQAPGKEREFVAQISWSGGITAYLDSVKGRFTISRDNAKNTVYLQMNSLKPEDTAVYYCARRGRKYEDDYWGQGTQVTVSS
notes: Llama nanobody, His-tagged, expressed in E. coli SHuffle T7; also called anti-CHS nanobody CHS13
B6: CHS02A (VHH)
VHH: QVQLQESGGGLVQAGGSLRLSCAASRGTFSRYVMGWFRQGPGKEREFVAGISWSGISTYYADFVKGRFTISRDNAKNTVYLQMNSLKPEDTAVYYCAADPGRGYDYWGQGTQVTVSS
notes: Llama nanobody, His-tagged, expressed in E. coli SHuffle T7; also called CHS2a; anti-CHS nanobody CHS02A
B7: CHS22 (VHH)
VHH: QVQLQESGGGLVQAGGSLRLSCAASGGTFSGLTMGWFRQAPGKERDFVAAISWNGRFTYYKDSVKGRFAISRDNAKSTVYLQMTSLKPEDTAVYYCGADVLSGRGYRYWGQGTQVTVSS
notes: Llama nanobody, His-tagged, expressed in E. coli SHuffle T7; also called anti-CHS nanobody CHS22
B8: CHS18 (VHH)
VHH: QVQLQESGGGLVQAGGSLRLSCTASGRTFSSYSMAWFRQASGKEREIVAAVSRFGKFKYYADSVKGRFTISRDNAKNTLYLQMNSLKPEDTAVYYCAKTDGSSWYLDYWGQGTQVTVSS
notes: Llama nanobody, His-tagged, expressed in E. coli SHuffle T7; also called anti-CHS nanobody CHS18
B9: CHS24 (VHH)
VHH: QVQLQESGGGWVQPGGSLRLSCTISGLSRYYAMGWFRQVPGKERESVATISLRGGRTYYADSVEGRFTISRDNAKNTMYLQMNSLKPEDTAVYYCVADTTWGAPRSRYHYWGQGTQVTVSS
notes: Llama nanobody, His-tagged, expressed in E. coli SHuffle T7; also called anti-CHS nanobody CHS24
B10: CHS08 (VHH)
VHH: QVQLQESGGGLVQAGSSLRLSCAASGRTFRYHAMGWFRQAPGKEREFVAGISTSGGMTYYPDSVKGRFTISRDNAKNTLYLQMNSLKPGDTAVYYCAKFHGDKGYGSSWYYDYWGQGTQVTVSS
notes: Llama nanobody, His-tagged, expressed in E. coli SHuffle T7; also called CHS8; anti-CHS nanobody CHS08
B11: CHS01A (VHH)
VHH: QVQLQESGGGLVQAGGSLRLSCSASTSIASINAVGWYRQAPGKQRELVAVIVNGSTTRYADSVKGRFTISGDNAENTVPLLMSSLKPEDTAIYYCGARDLSGTYWGQGTQVTVSS
notes: Llama nanobody, His-tagged, expressed in E. coli SHuffle T7; also called CHS1a; anti-CHS nanobody CHS01A
B12: NPC01C01 (VHH)
VHH: QVQLQESGGGLVQVGGSLRISCVASGRTGSYYAMGWFRQAPGKEREFVAAISWNGGMTDYADFVKGRFAISRDNAKTVSLQMNNLKPEDTALYYCTAGPARRSYSYRDGYDYWGQGTQVTVSS
notes: Llama nanobody, His-tagged, expressed in E. coli SHuffle T7; also called NPC1c; anti-NPC nanobody NPC01C01
B13: NPC04C01 (VHH)
VHH: QVQLQESGGGLVQAGGSLRLSCAASGRTFSSYVMGWFRQAPGKERELIGAINRSSTRLYYADSVKGRFSISRDNAKSTVYLQMNSLKPEDTAVYYCAADLVSILGKGYRDVDYWGQGTQVTVSS
notes: Llama nanobody, His-tagged, expressed in E. coli SHuffle T7; also called NPC4c; NPC4C
B14: NPC04D01 (VHH)
VHH: QVQLQESGGGLVQPGGSLRVSCAASGFSFSNYVMGWFRQAPGKERELIGAINRSSTRLYYADSVKGRFSISRDNAKSTVYLQMNSLKPEDTAVYYCAADLVSILGKGYRDVDYWGQGTQVTVSS
notes: Llama nanobody, His-tagged, expressed in E. coli SHuffle T7; also called NPC4d; NPC4D
B15: NPC07A01 (VHH)
VHH: QVQLQESGGGLVQAGDSLRISCKASGRTFSSYPIGWFRQAPGKEREFVAAISRSGGRTYYADSVKGRLTISRDNAKNTVYLQMNSLKLEDTAVYYCAAKTTMGLPVGGTYEYDYWGQGTQVTVSS
notes: Llama nanobody, His-tagged, expressed in E. coli SHuffle T7; also called NPC7a; anti-NPC nanobody NPC07A01
B16: NPC0901 (VHH)
VHH: QVQLQESGGGLVQAGDSLRISCKASGRTFSNYPIGWFRQAPGKEREFVAAISRSGGGTRYADSVKGRFTISRDNAKNTVYLQMNSLKRDDTAVYYCAAYFGNLGGGVGRSSDYDYWGQGTQVTVSS
notes: Llama nanobody, His-tagged, expressed in E. coli SHuffle T7; also called NPC9; anti-NPC nanobody NPC0901
B17: VAT0101B (VHH)
VHH: QVQLQESGGGLVQAGGSLRLSCAASGSTLSGYIMSWFRQPPGKERELVAAITYVGSTYVEDSVKGRFTISRDNAKNTVSLQMNSLKPEDTAVYYCRAREGEQLDFWGQGTQVTVSS
notes: Llama nanobody, His-tagged, expressed in E. coli SHuffle T7; also called anti-VAT nanobody VAT0101B
B18: VAT0101G (VHH)
VHH: QVQLQESGGGLVQAGGSLRLSCAASGSTFSGYIMSWFRQPPGKERELVAAITYVGSTWYQDSVKGRFTISRDNAKNTVSLQMNSLKPEDTAVYYCRAREGEQLDFWGQGTQVTVSS
notes: Llama nanobody, His-tagged, expressed in E. coli SHuffle T7; also called VATO101G; anti-VAT nanobody VAT0101G
B19: VAT0101D (VHH)
VHH: QVQLQESGGGLVQPGGSLRLSCVASGSTFSGYIMSWFRQPPGKERELVAAITYVGSTYVEDSVKGRFTISRDNAKNTVSLQMNSLKPEDTAVYYCRAREGEQLDFWGQGTQVTVSS
notes: Llama nanobody, His-tagged, expressed in E. coli SHuffle T7; also called anti-VAT nanobody VAT0101D
B20: VAT0101F (VHH)
VHH: QVQLQESGGGTVQAGGSLRLSCAASGSTFSGYIMSWFRQPPGKERELVAAITYVGSTYVEDSVKGRFTISRDNAKNTVSLQMNSLKPEDTAVYYCRAREGEQLDFWGQGTQVTVSS
notes: Llama nanobody, His-tagged, expressed in E. coli SHuffle T7; also called anti-VAT nanobody VAT0101F
B21: VAT0101C (VHH)
VHH: QVQLQESGGGLVQSGDSLRLSCAASGSTFSGYIMSWFRQPPGKERELVAAITYVGSTYVEDSVKGRFTISRDNAKNTVSLQMNSLKPEDTAVYYCRAREGEQLDFWGQGTQVTVSS
notes: Llama nanobody, His-tagged, expressed in E. coli SHuffle T7; also called anti-VAT nanobody VAT0101C
B22: VAT0101E (VHH)
VHH: QVQLQESGGGLVQAGDSLRLSCAASGSTFSGYIMSWFRQPPGKERELVAAITYVGSTYVEDSVKGRFTISRDNAKNTVSLQMNSLKPEDTAVYYCRAREGEQLDFWGQGTQVTVSS
notes: Llama nanobody, His-tagged, expressed in E. coli SHuffle T7; also called anti-VAT nanobody VAT0101E

Target: T1, Helicoverpa armigera trehalase (Helicoverpa armigera)
T1 construct: the tag is not part of the printed entry; also called TRH; target TRH antigen
T1 chain: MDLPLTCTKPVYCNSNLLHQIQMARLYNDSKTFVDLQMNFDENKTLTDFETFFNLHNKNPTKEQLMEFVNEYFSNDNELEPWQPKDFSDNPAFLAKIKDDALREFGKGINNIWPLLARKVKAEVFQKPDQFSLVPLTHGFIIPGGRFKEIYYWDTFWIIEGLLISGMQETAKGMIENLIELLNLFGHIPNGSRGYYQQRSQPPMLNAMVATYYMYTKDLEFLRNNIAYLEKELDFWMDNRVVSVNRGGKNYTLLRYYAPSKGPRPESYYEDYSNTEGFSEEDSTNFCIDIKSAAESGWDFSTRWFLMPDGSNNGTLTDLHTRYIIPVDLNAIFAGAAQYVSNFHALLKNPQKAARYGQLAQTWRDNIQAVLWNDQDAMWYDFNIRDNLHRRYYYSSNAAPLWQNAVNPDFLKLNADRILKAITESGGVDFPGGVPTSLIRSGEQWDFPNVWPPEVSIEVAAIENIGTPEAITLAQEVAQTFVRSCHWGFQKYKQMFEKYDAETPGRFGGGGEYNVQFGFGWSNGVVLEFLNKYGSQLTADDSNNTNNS
Test: ELISA, plate coated with 10 ug/ml target protein, 2 ug/ml nanobody, anti-VHH-HRP, A450
B1: binds.
B2: binds.
B3: binds.
B4: binds.

Target: T2, Helicoverpa armigera chitin synthase (Helicoverpa armigera)
T2 construct: the tag is not part of the printed entry; also called CHS; target CHS antigen
T2 chain: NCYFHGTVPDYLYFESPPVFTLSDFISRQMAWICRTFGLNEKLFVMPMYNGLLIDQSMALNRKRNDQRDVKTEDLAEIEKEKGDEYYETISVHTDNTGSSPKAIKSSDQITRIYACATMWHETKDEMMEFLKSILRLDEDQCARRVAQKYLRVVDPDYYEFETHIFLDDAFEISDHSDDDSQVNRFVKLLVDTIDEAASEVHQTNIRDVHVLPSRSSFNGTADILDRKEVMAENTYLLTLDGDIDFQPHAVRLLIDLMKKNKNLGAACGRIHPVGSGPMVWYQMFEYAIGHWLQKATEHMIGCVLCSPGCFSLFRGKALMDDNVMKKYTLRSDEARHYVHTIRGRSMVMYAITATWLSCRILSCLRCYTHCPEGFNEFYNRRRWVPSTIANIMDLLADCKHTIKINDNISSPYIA
Test: as above
B5: binds.
B6: binds.
B7: binds.
B8: binds.
B9: binds.
B10: binds.
B11: binds.

Target: T3, Helicoverpa armigera NPC1 sterol transporter (Helicoverpa armigera)
T3 construct: the tag is not part of the printed entry; also called target NPC antigen; target NPC1 antigen
T3 chain: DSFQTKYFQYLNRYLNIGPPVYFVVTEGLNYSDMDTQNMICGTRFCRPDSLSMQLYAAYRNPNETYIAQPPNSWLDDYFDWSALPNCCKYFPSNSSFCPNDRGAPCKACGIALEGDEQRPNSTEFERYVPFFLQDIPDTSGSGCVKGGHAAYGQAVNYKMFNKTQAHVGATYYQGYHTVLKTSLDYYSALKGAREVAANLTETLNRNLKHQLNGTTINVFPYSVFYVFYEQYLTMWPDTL
Test: as above
B12: binds.
B13: binds.
B14: binds.
B15: binds.
B16: binds.

Target: T4, Helicoverpa armigera V-ATPase subunit c (Helicoverpa armigera)
T4 construct: also called V-ATPases Subunit C; ATPase V subunit c
T4 chain: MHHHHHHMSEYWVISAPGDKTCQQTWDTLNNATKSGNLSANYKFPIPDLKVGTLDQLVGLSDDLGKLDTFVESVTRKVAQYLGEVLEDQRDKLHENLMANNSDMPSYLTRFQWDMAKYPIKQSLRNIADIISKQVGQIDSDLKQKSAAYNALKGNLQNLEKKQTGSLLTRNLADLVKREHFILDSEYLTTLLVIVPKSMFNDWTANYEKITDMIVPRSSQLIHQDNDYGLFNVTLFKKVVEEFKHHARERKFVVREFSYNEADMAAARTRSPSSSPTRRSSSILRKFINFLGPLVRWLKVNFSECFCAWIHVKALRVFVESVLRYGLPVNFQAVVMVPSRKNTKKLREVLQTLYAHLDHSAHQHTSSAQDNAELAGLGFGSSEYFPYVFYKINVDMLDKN
Test: as above
B17: binds.
B18: binds.
B19: binds.
B20: binds.
B21: binds.
B22: binds.
